Reference: the nanobody polyreactivity screen of Harvey et al. (2022)

Experiment: yeast display, Sf9 membrane polyspecificity reagent, FACS + sequencing; frameworks hold sequencing errors
Method in brief: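 A synthetic nanobody library was expressed on Saccharomyces cerevisiae BJ5465 by galactose induction for 36–48 hours. The library was stained for 1 hour at 4 °C with 10% biotinylated, detergent-solubilized Sf9 membrane reagent and enriched with streptavidin microbeads before FACS. Low and high (top ~1%) gates were set on anti-HA fluorescence for expression and streptavidin fluorescence for reagent binding, and each polyreactivity label reflects the gate of origin.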

Sequence | polyreactivity (PSR sort gate)
QVQLVESGGGLVQAGGSLRLSCAASGSIIYYYAMGWYRQAPGKERELVAAISASGGRTYYADSVKGRFTISRDNAKNTVYLQMNSLKPEDTAVYYCAKRGTLGSYYYWGQGTQVTVSS | high polyreactivity
QVQLVESGGGLVQAGGSLRLSCAASGFTLYRYAMGWYRQAPAKERELVAANNSRGGSTYYADSVKGRFTISRDNAKITVYLQMISLKPDDTAVYYCNARRIRGGVRLTSPFYYWGQGTHVTVSS | high polyreactivity
QVQLVESVGGLVQAGGTLRLSCAASGSTFNINAMGWYRQAPGKERELVAAISWSGDITYYADSVKGRFTISRDNAKNTVYLQMNSLKPEDTAVYYCNTDDPVNYWYAEYDYWGQGTQVTVSS | low polyreactivity
QVQLVESGGGLVQAAGSLRLSCAASGITSRFYVMGWYRQAPGKERESVAAISTRGTSTYYADSVKGRLPISRDNAKNTVYLQMNSLKPEDTAVYYCAAVGGYPYQYPYGSWGQGSQVTVSS | high polyreactivity
QVQLVESGGGLVQAGGSLRLSCAASGSIFLRNAMGWYRQAPGKERELVAAISWGGRTYYADSVKGRFTISRDNAKNTVYLQLNSLKPEDRAVYYCSADGTWVRSPHFYYWGQGTQVTVSS | low polyreactivity
QVQLVESGGGLVQAGGSRRLSCAASGGTFVSYAMGWYIQAPGKERELVADITYSGGSTYYADSVKGRFTISRDNAKNTVYLQMNSLKPEDTAVYYCAADLGRNLLHTYYYWGQGTQVTVSS | low polyreactivity
QVQIVESGGGLVQAGGSLRLSCAASGSTFGGNAMGWYRQAPGKERDLVAVISKRGGSKYYADSVKGRFTISRDNAKNTVYLQMNSLKPEDTAVYYCAATYSRYWSPTYDYWGQGTQVNVSS | high polyreactivity
QVQLVESGGGLVQAGGSLRLSCAASGLIFVANAMGWYRQAPGKERELVAAISRSGGITYYADSVKGRFTISRDNAKNTVYLQMNSLKPQDTAVYYCAKTLPSNGHYDYWGQGTQVTVSS | low polyreactivity
QVQLVESGGGLVQAGGSLRLSCAASGSIFQRYTMGWYIQAPGKERELVAAISWSGDGTYYADSVKGRFTISRDNAKNTFYLQMNSLKPEDTAVYYCNDGYTRRYRFRVENDYDYWGQGTQVTVSS | high polyreactivity
QVQLVESGGGLVQAGGSLRISCAASGSTFGPYAMGWYRQAPGKERELVAAIRWSDGSTYYADSVKGRFTISRDNANNTVYLQMNTLKPEDTAVSYCAVDGYGYNDDYWGQGTQVTVSS | high polyreactivity
QVQLVESGGGLVQAGRSLRLSCAASGSTFDQYDMGWYRQAPGKERELVAAISQSGDRTYYADSVKARFTISRDYAKTTVYLQMNSLQPDDTAVYYCADDGVSQDYYYRYDYWGQCTQVTVSS | low polyreactivity
QVQLVESGGGLVQAGGSLRLSCAASGRIFDWNTMGRYRQAPGKERELVAAISYEGSTYYADSVKGRFTISRDNAKNTVYLQMNSLKPEDTAVFYCNAYPLTQYFAQGYDYWGQGTQVTVSS | low polyreactivity
QVQLVESGGGLVQAGGSLRLSCAASGSTFGRYAMGWYRQAPGKERELVAAISRGTTTNYADSVKGRFTISRDNAKNTVYLQMNILKPEDTAVYYCAAQTDSVESDYWGQGTQVTVSS | low polyreactivity
QVQLVESGGGLVQAGGSLRLSCAASGRIFGLYAMGWYRQAPGKERELVAAISRRGGTTYYADSVKGRFTISRDNAKNTVYLQMNSLKPEDTAVYYCAAATVYLSWYYWGQGTQVTVSS | high polyreactivity
QVQLVESGGGLLQAGGSLRLSCADSGRTFCPNVMGCYRQAPGKERELVAAITWGDASTYYADSVKGRFTISRDNAKNTVYLQMNCLKPEDTAVYYCGAKSSTRGDYWGQGTQVTVSS | low polyreactivity
QVQLVESGGGLVQAGCSLRLSCAASGFTFQVYTMGSYRPAPGKERELVARISRRGGSTYYADSVKGRFTISRDNAKNTVYLQMNSLKPEDTAVYYCAADWYASSYRTYTFDYWGQGTQVTVSS | high polyreactivity

Sequence | polyreactivity (PSR sort gate)
QVQLVESGGGLVQAGGSLRLSCAATGSTFKWYAMGWYIQAPGKERELVDSISWTGASTYYADSVKGRFTISRDKAKNTVYLQMNSLKPEDTAVYYCAADRTYYALLWTGRSRYDYWGQGTQVTVSS | high polyreactivity
QVQLVESGGGLVQAGCRLRLSCAASGFIFCYNAMGLYRQAPGKERELVAAITTAGSTNYADSVKGRFTISRDNAKNTVYVQMNSLKPEDTAVYYCNKVQLRNRYPYRYGFGDVGYWGQGTQVTVSS | low polyreactivity
QVQLVESGGGLVQAGGSLRLSCAASGSIKDNVMGWYRQAPGKERELVAAITRSAGRTYYADSVMGRFTISRDNEKNTVYLQMNSLKPEDTAVYYCASQAERYGYEYWGQGTQVTVSS | low polyreactivity
QVQLVESGGGLVQAGGSLRLSCAASGRIIYPNAIGWYRQAPGKERELVAGITSRGGSTYYADSVKGRFTSSRDNAKNTVYLQMNSLKPEDTAVYYCAKRYYYFYPDYDYWGQGTQVTVSS | high polyreactivity
QVQLVESGGGLVQAGGSLRLSCADSGFTFSQYAAIGWYRQAPGKERELVAAINISGSTNYADSVKGRFTISRDNAKNTVYLQMNSLKPEDTAVYYCAAQQSWKIYDYWGLGTQVTVSS | low polyreactivity
QDQLVESGGGLVQAGGSLRLSCAASGFTCRYYAMGWYRQAPGKERELVAAITGSGTRTYYADSVKGRFTISRDNAKNTVYLQMNSLKPEETAVYYCYPPRQPRWFDYWGQGTQVTVSS | high polyreactivity
QVQLVESGGGLVQAGGSLRLSCAASGRTFGDYAMGWYRQAPGKERELVAAISSSGGRTYYADSVKGRFTISRDNAKNTVYLQMNSLKPEDTAVYYCAAQSKYYQYYSWGQGTQVTVSS | high polyreactivity
QVQLVESGGGLVQAGGSLRLSCAASGRIFRGYGMAWYRQAPGKERELVAAISRGGNTDYADSVKGRFTISRDNANNTVYLQMNSLKPEETAVYYCAVGYVSYRKLYLYNSWGQGTQVTVSS | high polyreactivity
QGQLVESGGGLVQAGGSLRLSCAASGRIFEFNARGWYRQAPGKERELVAANSRSGGSTYYADSVKGRFTISRDKAKNTVYLQMNTQKPEHTAVYYCNAVYHYYPLYYWKYGYWGQGTQVTVSS | low polyreactivity
QDQLVESGGGLVQAGGSLRLTCAASGSIFGWYAMGWYRQAPGKEMELFAAITNSGGSTYYADSVKGRFTISRDNAKKTVYIQMNSLKPEETAVYYCAAESWIRRWYGGGKKYDYWGQGTQVTVSS | high polyreactivity
QVKLVESGGGLVQAGGSLRLSCAESGRIFHHYAMGWYRQAPGKERELVAAITGGGSTYYADSVKVRFTISRYNAKITVYLQMNSLKPEDTAVYYCAAPPFGYYEVGYDSWGQGSQVTVSS | low polyreactivity
QVQLGESGGGLVQSGGSLRLSCAASGIIFRNYAMGWYRPAPGKERELVATITGDGGSTYYADSVKGRFTISRDNAKNTVYFQMNSLKPEDTAVYYCAAEYHHYYYYWGEYWGQGTQVTVSS | low polyreactivity
QVQLVESGGGLVQAGGSLRLSCAASGSTFRSYTMGWYRQAPGKERELVAAISGRGGSTYYADSVKGRFTISRDNAKNTVYLQMNSLKPEDTAVYYCAAPYWKRVAWGFDYWGQGTQVTVSS | high polyreactivity
QVQLVESGGGLVQAGGSLRISCAASGRTLRYYAMGWYRQAPGKERELVAAITSSDRTYYADSVKGRFTISRDNAKNTVYLQMNSLKPEDTAVYYCAAYRATQFGYYYWGQGTQVTVSS | high polyreactivity
QDQLVESGGGLVQAGGSLRLSCAASGITFNRYAMGWYRQAPGKERELVAAISRTGGSTYYADSVKARFTISRDNAKNTVYLQMNSLKPEDTAVYYCASRYTKGMYYWGQVTQVTVSS | high polyreactivity
QDQLVESGGGLVQAGGSLRLSCAASGRLFATYAMGWNRQAPGKERELVAAISDSGGRTYYADSVTGRFTSSRDNAKNTVYLQMNSLKPEDTAVYYCAAKNGDRYARGYWGQGTQVTVSS | high polyreactivity
